From patent publication US20090092581A1
Changes are numbered by the printed parent chain. “And” between values parts separate entries of the source, which are not always exact repeats. Equal entries are not always repeated.

B1: Cynomolgus IFN-α protein SEQ ID 50, expressed in Vero tissue culture supernatant (ligand)
chain: CNPSQTHNMNNRRTLMLMAQMRRISPFSCLKDRNDFEFPQEEFDGNQFQNTQAISVLHEMMQQTFNLFSTKDSSAAWDETLLDKFYIELFQQLNDLEACVIQEAGVEETPLMNEDSILAVRKYFQRITLYLMEKKYSPCAWEVVRAEIMRSLSFSTNLQKRLRRKD
B2: Cynomolgus IFN-α protein SEQ ID 52, expressed in Vero tissue culture supernatant (ligand)
chain: MALSFSLLMAVVVLSYKSICSLGCDLPQTHSLGHRRALILLAQMQRISLPSCLKDRHDFAFLQEFDGNQFQKAQAMSVLHEMIQQTFNLLSTKDSSAAWDETLLDKFYIELFQQLNDLEACVIQEAGVEETPLMNEDSILAVRKYFQRITLYLTEKKYSPCAWEVVRAEIMRSLSFSTNLQKRLGRKD
B3: Cynomolgus IFN-α protein SEQ ID 56, expressed in Vero tissue culture supernatant (ligand)
chain: CDLPQTHSLGHRRALILLAQMGRISPFSCLKDRHDFGFPQEEFDGNQFQKAQAMSVLHEMIQQTFNLFSTKDSSAAWEQNLLEKFSAELYQQLNDLKACVIAEPGMEDTPLMNEDSILAVKKYFQRITLYLTEKKYSPCAWEVVRAEIMRSLSFSTNLQKRLRRKD
B4: Cynomolgus IFN-α protein SEQ ID 44, expressed in Vero tissue culture supernatant (ligand)
chain: B3 chain with H34R, G37A, A146T
B5: Cynomolgus IFN-α protein SEQ ID 48, expressed in Vero tissue culture supernatant (ligand)
chain: MALSFSLLMAVVVLSYKSICSLGCDPPRTHSLGHRRALILLAQMERISPFSCLKDRCDFAFPQEEFDGNQFQKAQAMSVLHEMIQQTFNLFSTKDSSAAWEQNLLEKFSAELYQQLNDLKACVIAEPGMEETLLMNEDSILAVKKYFQRITLYLTEKKYSPCAWEVVRAEIMRSLSFSTNLQKRLRRKD

Tests used:
[1] = biological target: T1, Type I IFN receptor on iLite human IFN-α gene-reporter cells (human) (UniProt P17181); experiment: cell-based or functional assay
T1 sequence (looked up) 1: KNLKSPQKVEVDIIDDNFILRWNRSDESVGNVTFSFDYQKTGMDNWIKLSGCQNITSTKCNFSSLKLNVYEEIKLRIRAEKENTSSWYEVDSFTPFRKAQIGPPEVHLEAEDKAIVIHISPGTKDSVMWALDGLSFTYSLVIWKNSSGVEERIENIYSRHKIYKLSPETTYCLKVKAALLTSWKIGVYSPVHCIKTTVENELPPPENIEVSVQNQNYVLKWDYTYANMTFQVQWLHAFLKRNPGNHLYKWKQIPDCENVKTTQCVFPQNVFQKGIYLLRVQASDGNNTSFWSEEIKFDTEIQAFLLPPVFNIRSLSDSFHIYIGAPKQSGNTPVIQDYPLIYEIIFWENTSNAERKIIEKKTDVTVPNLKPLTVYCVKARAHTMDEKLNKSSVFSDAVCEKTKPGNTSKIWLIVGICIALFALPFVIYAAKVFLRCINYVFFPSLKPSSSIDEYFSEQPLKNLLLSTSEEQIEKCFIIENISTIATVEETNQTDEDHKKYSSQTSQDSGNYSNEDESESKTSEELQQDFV
T1 sequence (looked up) 2: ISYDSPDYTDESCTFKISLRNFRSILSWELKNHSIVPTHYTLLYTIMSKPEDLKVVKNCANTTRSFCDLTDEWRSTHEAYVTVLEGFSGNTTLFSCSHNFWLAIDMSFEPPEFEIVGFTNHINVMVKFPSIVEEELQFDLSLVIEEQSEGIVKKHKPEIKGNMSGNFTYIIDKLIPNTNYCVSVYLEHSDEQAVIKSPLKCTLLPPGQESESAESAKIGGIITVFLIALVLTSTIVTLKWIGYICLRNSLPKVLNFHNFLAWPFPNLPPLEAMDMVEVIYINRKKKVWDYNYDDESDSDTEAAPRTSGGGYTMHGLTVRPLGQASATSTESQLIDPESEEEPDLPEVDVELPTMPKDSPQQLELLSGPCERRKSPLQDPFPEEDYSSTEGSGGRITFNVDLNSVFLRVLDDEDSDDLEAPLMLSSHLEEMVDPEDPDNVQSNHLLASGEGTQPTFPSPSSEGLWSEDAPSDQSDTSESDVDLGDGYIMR

[2] = biological target: Cynomolgus IFN-α protein SEQ ID 58, expressed in Vero tissue culture supernatant (Cynomolgus (Macaca fascicularis)); experiment: ELISA kit PBL #41100 (head prints 41110) on Vero supernatant; read against human IFN-α2a standard curve; unit not given
[3] = biological target: Cynomolgus IFN-α protein SEQ ID 66, expressed in Vero tissue culture supernatant (Cynomolgus (Macaca fascicularis)); experiment: as above
[4] = biological target: Cynomolgus IFN-α protein SEQ ID 54, expressed in Vero tissue culture supernatant (Cynomolgus (Macaca fascicularis)); experiment: as above
[5] = biological target: Cynomolgus IFN-α protein SEQ ID 46, expressed in Vero tissue culture supernatant (Cynomolgus (Macaca fascicularis)); experiment: as above
[6] = biological target: Cynomolgus IFN-α protein SEQ ID 62, expressed in Vero tissue culture supernatant (Cynomolgus (Macaca fascicularis)); experiment: as above
[7] = biological target: Cynomolgus IFN-α protein SEQ ID 56, expressed in Vero tissue culture supernatant (Cynomolgus (Macaca fascicularis)); experiment: as above
[8] = biological target: Cynomolgus IFN-α protein SEQ ID 50, expressed in Vero tissue culture supernatant (Cynomolgus (Macaca fascicularis)); experiment: as above
[9] = biological target: Cynomolgus IFN-α protein SEQ ID 42, expressed in Vero tissue culture supernatant (Cynomolgus (Macaca fascicularis)); experiment: as above
[10] = biological target: Cynomolgus IFN-α protein SEQ ID 60, expressed in Vero tissue culture supernatant (Cynomolgus (Macaca fascicularis)); experiment: as above
[11] = biological target: Rhesus interferon alpha 2 (Rhesus) (UniProt B6CK11); experiment: sandwich ELISA kit PBL #41100-1; signal relative to human IFN-α2 (FIG. 3)
[12] = biological target: Cynomolgus interferon alpha 2 (SEQ ID NO: 66), purified from inclusion bodies after expression in E. coli (Cynomolgus (Macaca fascicularis)); experiment: as above
[13] = biological target: Cynomolgus IFN-α protein SEQ ID 54, expressed in Vero tissue culture supernatant (Cynomolgus (Macaca fascicularis)); experiment: ELISA kit PBL #41105 on Vero supernatant; read against human IFN-α2a standard curve; unit not given; first of two values
[14] = biological target: Cynomolgus IFN-α protein SEQ ID 58, expressed in Vero tissue culture supernatant (Cynomolgus (Macaca fascicularis)); experiment: ELISA kit PBL #41105 on Vero supernatant; read against human IFN-α2a standard curve; unit not given
[15] = biological target: Cynomolgus IFN-α protein SEQ ID 66, expressed in Vero tissue culture supernatant (Cynomolgus (Macaca fascicularis)); experiment: as above
[16] = biological target: Cynomolgus IFN-α protein SEQ ID 46, expressed in Vero tissue culture supernatant (Cynomolgus (Macaca fascicularis)); experiment: as above
[17] = biological target: Cynomolgus IFN-α protein SEQ ID 62, expressed in Vero tissue culture supernatant (Cynomolgus (Macaca fascicularis)); experiment: as above
[18] = biological target: Cynomolgus IFN-α protein SEQ ID 56, expressed in Vero tissue culture supernatant (Cynomolgus (Macaca fascicularis)); experiment: as above
[19] = biological target: Cynomolgus IFN-α protein SEQ ID 50, expressed in Vero tissue culture supernatant (Cynomolgus (Macaca fascicularis)); experiment: as above
[20] = biological target: Cynomolgus IFN-α protein SEQ ID 42, expressed in Vero tissue culture supernatant (Cynomolgus (Macaca fascicularis)); experiment: as above
[21] = biological target: Cynomolgus IFN-α protein SEQ ID 60, expressed in Vero tissue culture supernatant (Cynomolgus (Macaca fascicularis)); experiment: as above
[22] = biological target: Cynomolgus IFN-α protein SEQ ID 54, expressed in Vero tissue culture supernatant (Cynomolgus (Macaca fascicularis)); experiment: ELISA kit PBL #41105 on Vero supernatant; read against human IFN-α2a standard curve; unit not given; second of two values

Sequence of UniProt B6CK11 (B6CK11 entry or part of it): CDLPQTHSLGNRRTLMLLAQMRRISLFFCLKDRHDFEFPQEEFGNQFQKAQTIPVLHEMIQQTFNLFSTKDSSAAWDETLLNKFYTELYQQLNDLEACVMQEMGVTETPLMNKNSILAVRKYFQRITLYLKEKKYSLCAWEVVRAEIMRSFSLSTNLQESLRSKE

Molecule | % Neutralization of Luciferase Induction by anti-Type I IFN Receptor Antibody (25 µg/mL) [1] | Luciferase Induction Activity (U/mL) [1] | other results
Cynomolgus IFN-α protein SEQ ID 42, expressed in Vero tissue culture supernatant (from UniProt P01571 24-189) (ligand) | > 99% | 36700 U/mL | 
Cynomolgus IFN-α protein SEQ ID 46, expressed in Vero tissue culture supernatant (from UniProt P01571 24-189) (ligand) | > 99% | 2700 U/mL | 
Cynomolgus IFN-α protein SEQ ID 54, expressed in Vero tissue culture supernatant (from UniProt P01568 24-188) (ligand) | > 99% | 11600 U/mL | 
Cynomolgus IFN-α protein SEQ ID 58, expressed in Vero tissue culture supernatant (from UniProt P01570 24-189) (ligand) | > 99% | 8950 U/mL | 
Cynomolgus IFN-α protein SEQ ID 60, expressed in Vero tissue culture supernatant (from UniProt P32881 24-189) (ligand) | > 99% | 48900 U/mL | 
Cynomolgus IFN-α protein SEQ ID 62, expressed in Vero tissue culture supernatant (from UniProt P01571 24-189) (ligand) | > 99% | 16000 U/mL | 
Cynomolgus IFN-α protein SEQ ID 66, expressed in Vero tissue culture supernatant (from UniProt P01563 24-188) (ligand) | > 99% | 6630 U/mL | 
Human IFN-α ELISA kit, PBL Biomedical Laboratories Product #41100-1 (kit antibodies) (antibody) |  |  | ELISA estimate of IFN-α protein level in tissue culture supernatant [2]: 66; ELISA estimate of IFN-α protein level in tissue culture supernatant [3]: 184; ELISA estimate of IFN-α protein level in tissue culture supernatant [4]: 11; ELISA estimate of IFN-α protein level in tissue culture supernatant [5]: 0; ELISA estimate of IFN-α protein level in tissue culture supernatant [6]: 0; ELISA estimate of IFN-α protein level in tissue culture supernatant [7]: 0; ELISA estimate of IFN-α protein level in tissue culture supernatant [8]: 296; ELISA estimate of IFN-α protein level in tissue culture supernatant [9]: 0; ELISA estimate of IFN-α protein level in tissue culture supernatant [10]: 0; specific ELISA signal compared to human IFN-α2 [11]: 10%; specific ELISA signal compared to human IFN-α2 [12]: 10%
Human IFN-α Multi-Subtype ELISA kit, PBL # 41105 (kit antibodies) (antibody) |  |  | ELISA estimate of IFN-α protein level in tissue culture supernatant [13]: 8; ELISA estimate of IFN-α protein level in tissue culture supernatant [14]: > 1120; ELISA estimate of IFN-α protein level in tissue culture supernatant [15]: > 651 and 1500; ELISA estimate of IFN-α protein level in tissue culture supernatant [16]: 187 and 123; ELISA estimate of IFN-α protein level in tissue culture supernatant [17]: 75 and 95; ELISA estimate of IFN-α protein level in tissue culture supernatant [18]: 289 and 414; ELISA estimate of IFN-α protein level in tissue culture supernatant [19]: > 1120; ELISA estimate of IFN-α protein level in tissue culture supernatant [20]: 287 and 566; ELISA estimate of IFN-α protein level in tissue culture supernatant [21]: > 651 and 1000; ELISA estimate of IFN-α protein level in tissue culture supernatant [22]: 8
B1 | > 99% | 8040 U/mL | 
B2 | > 99% | 515 U/mL | 
B3 | > 99% | 822 U/mL | 
B4 | > 99% | 2830 U/mL | 
B5 | > 99% | 2170 U/mL | 
